Laboratory results: PMC12717012, “Hierarchical interactions between nucleolar and heterochromatin condensates are mediated by a dual-affinity protein” (Nature Cell Biology, 2025)

Molecular target: T1, His-tagged recombinant Pit, wild type (Pit^WT) (Drosophila melanogaster, UniProt Q9VD51 1-680)
T1 construct: also called His-tagged Pit; pBH4-Pit; source: E. coli BL21, purified (Ni-NTA, size-exclusion chromatography on Superdex 200); not shown: 6×His, N-terminal, kept
Experiment: pull-down; His-tagged Pit (5 µM) as bait with purified HP1a as prey (5 µM; titrated from 50 to 5 µM); 20 mM sodium phosphate, 50 mM NaCl, 10 mM imidazole, 4 °C; captured on Ni-NTA magnetic beads; western blot; background control beads + HP1a only
Details: both partners purified

T1 sequence (Q9VD51 whole entry): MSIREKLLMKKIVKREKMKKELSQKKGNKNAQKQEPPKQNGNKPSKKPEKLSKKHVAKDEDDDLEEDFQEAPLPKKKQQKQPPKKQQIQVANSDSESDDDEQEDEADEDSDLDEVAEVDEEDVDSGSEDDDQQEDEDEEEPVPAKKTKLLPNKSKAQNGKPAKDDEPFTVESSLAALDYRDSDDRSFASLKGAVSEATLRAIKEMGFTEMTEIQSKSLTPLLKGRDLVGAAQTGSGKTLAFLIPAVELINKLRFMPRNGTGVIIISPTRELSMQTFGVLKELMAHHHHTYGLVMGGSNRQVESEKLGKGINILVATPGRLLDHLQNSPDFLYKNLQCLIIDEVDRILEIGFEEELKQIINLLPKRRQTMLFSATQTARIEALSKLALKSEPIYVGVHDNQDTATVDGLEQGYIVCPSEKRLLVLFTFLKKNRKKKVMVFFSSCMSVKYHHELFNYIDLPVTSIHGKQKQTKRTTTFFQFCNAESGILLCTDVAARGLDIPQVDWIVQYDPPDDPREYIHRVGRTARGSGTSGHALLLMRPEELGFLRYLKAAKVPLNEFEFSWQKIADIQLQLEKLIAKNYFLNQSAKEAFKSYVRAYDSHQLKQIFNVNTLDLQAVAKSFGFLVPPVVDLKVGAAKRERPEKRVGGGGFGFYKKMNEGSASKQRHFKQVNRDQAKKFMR

binding result: binds
B1: purified HP1a, wild type (HP1a^WT) (natural protein, Drosophila melanogaster, UniProt P05205 1-206, looked up)
chain: MGKKIDNPESSAKVSDAEEEEEEYAVEKIIDRRVRKGKVEYYLKWKGYPETENTWEPENNLDCQDLIQQYEASRKDEEKSAASKKDRPSSSAKAKETQGRASSSTSTASKRKSEEPTAPSGNKSKRTTDAEQDTIPVSGSTGFDRGLEAEKILGASDNNGRLTFLIQFKGVDQAEMVPSSVANEKIPRMVIHFYEERLSWYSDNED
notes: HP1a, Drosophila melanogaster; It speaks of HP1a dimers, but no dimerisation experiment is done here
